Test [1] has as its target T1, human natriuretic peptide receptor A (NPRA) (human, UniProt P16066 33-1061).
T1 construct: whole, on cells; also called hNPRA; Human NPRA
T1 sequence (looked up): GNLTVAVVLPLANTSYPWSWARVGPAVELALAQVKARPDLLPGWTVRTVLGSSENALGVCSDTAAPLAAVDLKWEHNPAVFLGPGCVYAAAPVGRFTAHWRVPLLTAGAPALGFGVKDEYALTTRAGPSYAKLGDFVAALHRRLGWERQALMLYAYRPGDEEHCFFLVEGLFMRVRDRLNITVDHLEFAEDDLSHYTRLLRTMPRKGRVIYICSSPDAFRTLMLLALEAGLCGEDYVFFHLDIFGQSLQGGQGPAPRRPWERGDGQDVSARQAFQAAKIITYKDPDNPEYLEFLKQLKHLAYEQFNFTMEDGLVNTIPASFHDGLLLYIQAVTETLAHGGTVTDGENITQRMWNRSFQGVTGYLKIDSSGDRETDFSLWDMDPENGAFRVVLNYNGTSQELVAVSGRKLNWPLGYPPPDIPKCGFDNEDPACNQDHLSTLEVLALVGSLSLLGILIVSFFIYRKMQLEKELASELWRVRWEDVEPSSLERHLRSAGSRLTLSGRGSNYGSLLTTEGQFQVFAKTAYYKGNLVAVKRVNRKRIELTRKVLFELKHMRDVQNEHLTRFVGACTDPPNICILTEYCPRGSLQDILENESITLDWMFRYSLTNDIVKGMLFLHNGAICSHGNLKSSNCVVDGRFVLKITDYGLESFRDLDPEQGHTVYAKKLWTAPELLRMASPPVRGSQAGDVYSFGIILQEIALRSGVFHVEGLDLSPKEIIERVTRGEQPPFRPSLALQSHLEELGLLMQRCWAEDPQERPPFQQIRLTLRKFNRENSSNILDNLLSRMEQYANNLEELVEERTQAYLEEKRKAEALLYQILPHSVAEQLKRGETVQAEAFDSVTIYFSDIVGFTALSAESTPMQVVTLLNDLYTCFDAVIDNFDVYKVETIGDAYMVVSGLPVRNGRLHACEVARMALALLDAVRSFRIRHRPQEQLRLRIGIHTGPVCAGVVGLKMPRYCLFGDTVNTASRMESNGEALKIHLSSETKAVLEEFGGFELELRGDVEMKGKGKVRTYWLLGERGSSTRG
The test is described as follows: competition with 125I-labeled ANP on human NPRA transfected HEK293 cells; Ki=IC50/[1+([L]/Kd)]. On the procedure:
Plates were washed with ice cold buffer by vacuum filtration and allowed to dry. Scintillant was added and the plates were counted on a TopCount Scintillation counter.
(§1) Plates were washed using vacuum filtration and allowed to dry. Scintillant was added and the plates were counted on a TopCount Scintillation counter. Curves were fit using XLfit4.2 and IC₅₀ values (Table 8) were determined using the Dose Response One Site Model 205, [4 parameter fit: y=A+((B-A)/(1+((C/x)̂D)))].

A further test concerns the target T2, rat NPRA (rat, UniProt P18910 29-1057).
T2 sequence (looked up): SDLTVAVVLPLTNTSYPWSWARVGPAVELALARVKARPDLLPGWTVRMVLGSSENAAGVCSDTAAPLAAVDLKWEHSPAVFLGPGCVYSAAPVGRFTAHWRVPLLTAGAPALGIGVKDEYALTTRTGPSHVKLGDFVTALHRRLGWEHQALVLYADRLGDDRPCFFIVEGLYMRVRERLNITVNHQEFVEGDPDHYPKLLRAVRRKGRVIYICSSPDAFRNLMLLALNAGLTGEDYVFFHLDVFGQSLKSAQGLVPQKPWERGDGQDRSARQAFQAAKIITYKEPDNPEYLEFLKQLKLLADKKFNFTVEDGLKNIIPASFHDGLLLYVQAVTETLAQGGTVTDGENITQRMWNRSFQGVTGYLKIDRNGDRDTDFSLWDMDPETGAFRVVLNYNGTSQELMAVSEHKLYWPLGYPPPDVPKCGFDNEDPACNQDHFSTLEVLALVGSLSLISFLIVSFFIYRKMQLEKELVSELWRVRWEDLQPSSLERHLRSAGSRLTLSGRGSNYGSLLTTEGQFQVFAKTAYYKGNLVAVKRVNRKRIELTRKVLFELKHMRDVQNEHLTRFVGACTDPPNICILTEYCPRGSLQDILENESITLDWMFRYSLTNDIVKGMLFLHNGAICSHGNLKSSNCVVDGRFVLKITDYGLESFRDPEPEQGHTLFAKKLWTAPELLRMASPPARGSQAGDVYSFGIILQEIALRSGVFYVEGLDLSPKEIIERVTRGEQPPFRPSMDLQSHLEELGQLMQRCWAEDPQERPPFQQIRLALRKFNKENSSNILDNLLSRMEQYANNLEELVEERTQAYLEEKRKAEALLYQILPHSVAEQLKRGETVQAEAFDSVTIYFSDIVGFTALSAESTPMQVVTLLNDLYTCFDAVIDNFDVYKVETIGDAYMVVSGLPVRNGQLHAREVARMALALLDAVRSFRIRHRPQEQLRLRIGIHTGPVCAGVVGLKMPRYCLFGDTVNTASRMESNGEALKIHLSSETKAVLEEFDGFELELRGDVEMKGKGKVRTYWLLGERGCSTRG
Nature of the test: cell-based or functional assay.

Test [2] addresses T1, human natriuretic peptide receptor A …. Nature of the test: cell-based or functional assay.
Another test concerns the target monkey NPRA (monkey). Nature of the test: cell-based or functional assay.
Test [3] addresses T3, canine NPRA (canine, UniProt A0A8I3MHU3 32-1060).
T3 sequence: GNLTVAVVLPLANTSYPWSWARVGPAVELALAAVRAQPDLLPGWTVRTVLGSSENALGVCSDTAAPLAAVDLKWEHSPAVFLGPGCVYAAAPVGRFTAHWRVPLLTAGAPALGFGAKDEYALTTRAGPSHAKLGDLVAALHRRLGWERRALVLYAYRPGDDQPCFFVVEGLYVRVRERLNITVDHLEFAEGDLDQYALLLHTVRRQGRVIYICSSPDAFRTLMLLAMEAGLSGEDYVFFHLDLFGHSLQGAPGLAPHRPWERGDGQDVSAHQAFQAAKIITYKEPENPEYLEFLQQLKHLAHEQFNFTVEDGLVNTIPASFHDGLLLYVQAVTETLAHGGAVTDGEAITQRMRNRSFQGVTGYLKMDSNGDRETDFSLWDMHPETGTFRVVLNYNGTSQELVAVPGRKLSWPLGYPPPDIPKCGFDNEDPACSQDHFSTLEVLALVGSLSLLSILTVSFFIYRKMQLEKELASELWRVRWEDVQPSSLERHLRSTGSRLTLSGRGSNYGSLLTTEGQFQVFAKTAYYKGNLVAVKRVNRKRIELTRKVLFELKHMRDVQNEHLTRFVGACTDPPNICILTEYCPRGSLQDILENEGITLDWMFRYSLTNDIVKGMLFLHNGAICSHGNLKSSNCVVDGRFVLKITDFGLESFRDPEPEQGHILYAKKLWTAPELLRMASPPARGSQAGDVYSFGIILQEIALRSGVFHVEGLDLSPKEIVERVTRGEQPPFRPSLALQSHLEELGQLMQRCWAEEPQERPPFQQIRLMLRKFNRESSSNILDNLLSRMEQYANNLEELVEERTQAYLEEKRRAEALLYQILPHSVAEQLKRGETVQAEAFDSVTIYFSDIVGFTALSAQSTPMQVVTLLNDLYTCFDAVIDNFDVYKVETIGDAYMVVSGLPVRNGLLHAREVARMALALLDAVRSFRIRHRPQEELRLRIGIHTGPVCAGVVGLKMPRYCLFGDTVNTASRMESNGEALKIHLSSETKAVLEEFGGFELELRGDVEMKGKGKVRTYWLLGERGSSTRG
Nature of the test: cell-based or functional assay.

The target of test [4] is T1, human natriuretic peptide receptor A …. Nature of the test: competition with 125I-labeled ANP on human NPRA transfected HEK293 cells. On the procedure: as §1
Test [5] shares this target. The test is described as follows: competition with 125I-labeled ANP on human NPRA transfected HEK293 cells; relative to Construct 1. On the procedure:
as §1

The target in test [6] is T3, canine NPRA. Nature of the test: cell-based or functional assay. The source holds these as a separate data set.

Where no end group is shown, it is not given here.

B1: Construct 5, ANPXY-L6-Fc2AB (recombinant) (Fc fusion)
chain: SLRRSSCFGGRMDRIGAQSGLGCNSFRYGGSGGSGGSGGSGGSGGSGGCPPCPAPPVAGPSVFLFPPKPKDTLMISRTPEVTCVVVDVSHEDPEVQFNWYVDGVEVHNAKTKPREEQFNSTFRVVSVLTVVHQDWLNGKEYKCKVSNKGLPAPIEKTISKTKGQPREPQVYTLPPSREEMTKNQVSLTCLVKGFYPSDIAVEWESNGQPENNYKTTPPMLDSDGSFFLYSKLTVDKSRWQQGNVFSCSVMHEALHNHYTQKSLSLSPGK
notes: also called ANP28-20aa-hFc2
In the case of B1, the Ki in test [1] worked out at 2 nM. Further, the “cGMP EC50 (nM) Rat NPRA” value with rat NPRA was determined as 12 nM. In test [2], the “cGMP EC50 (nM) Human NPRA” value stood at 6 nM. Besides, the “cGMP EC50 (nM) Monkey NPRA” value with monkey NPRA was determined as 5 nM. Also, in the test with canine NPRA [3], the “cGMP EC50 (nM) Dog NPRA” value is 6 nM. Besides, the IC50 in test [4] came to 4.3 nM. The “Relative Affinity” value in test [5] is 1.

B2: Construct 4, ANPXY-L4-Fc2AB (recombinant) (Fc fusion)
chain: SLRRSSCFGGRMDRIGAQSGLGCNSFRYGGSGGSGGSGGCPPCPAPPVAGPSVFLFPPKPKDTLMISRTPEVTCVVVDVSHEDPEVQFNWYVDGVEVHNAKTKPREEQFNSTFRVVSVLTVVHQDWLNGKEYKCKVSNKGLPAPIEKTISKTKGQPREPQVYTLPPSREEMTKNQVSLTCLVKGFYPSDIAVEWESNGQPENNYKTTPPMLDSDGSFFLYSKLTVDKSRWQQGNVFSCSVMHEALHNHYTQKSLSLSPGK
notes: also called ANP28-11aa-hFc2
As for B2, the Ki in test [1] was 12.3 nM. For the same molecule, in the test with rat NPRA, the “cGMP EC50 (nM) Rat NPRA” value worked out at 57 nM. Also, the “cGMP EC50 (nM) Human NPRA” value in test [2] turned out to be 27 nM. Also, in the test with monkey NPRA, the “cGMP EC50 (nM) Monkey NPRA” value is 18 nM. Also, the “cGMP EC50 (nM) Dog NPRA” value with canine NPRA [3] is 46 nM. Further, the half-inhibitory concentration (IC50) in test [4] worked out at 29.3 nM. In addition, the “Relative Affinity” value in test [5] worked out at 4.

Regarding SLRRSSCFGGRMDRIGAQSGLGCNSFRY (ends and bridges not checked; also: also used 125I-labelled as radioligand) [human ANP28 peptide (hANP28)], the “Mean EC50 nM, cGMP-caNPRA 293” value with canine NPRA [6] was found to be 1.34 nM. Further, in the test with monkey NPRA, the “cGMP EC50 (nM) Monkey NPRA” value amounted to 0.5 nM. In addition, in the test with canine NPRA [3], the “cGMP EC50 (nM) Dog NPRA” value was 1.3 nM.

These data come from patent US20100310561A1 (Boehringer Ingelheim, published 2010).
